# Measured values published in PMC7591920 (2020).
# Bridge positions count the residues as written; N and C are the ends. Ends that are not written are not given here.
# T1: GST-hTEAD1(209–426) (human, UniProt P28347 209-426)
# T1 chain: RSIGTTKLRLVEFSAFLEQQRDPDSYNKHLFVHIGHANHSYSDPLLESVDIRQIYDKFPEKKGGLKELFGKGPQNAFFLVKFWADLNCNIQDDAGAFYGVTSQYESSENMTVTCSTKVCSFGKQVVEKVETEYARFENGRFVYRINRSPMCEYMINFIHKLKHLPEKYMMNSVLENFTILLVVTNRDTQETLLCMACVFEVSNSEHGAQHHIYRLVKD
# T2: mouse TEAD4(210–427), as purified (SPR) (mouse, UniProt Q62296 210-427)
# T2 chain: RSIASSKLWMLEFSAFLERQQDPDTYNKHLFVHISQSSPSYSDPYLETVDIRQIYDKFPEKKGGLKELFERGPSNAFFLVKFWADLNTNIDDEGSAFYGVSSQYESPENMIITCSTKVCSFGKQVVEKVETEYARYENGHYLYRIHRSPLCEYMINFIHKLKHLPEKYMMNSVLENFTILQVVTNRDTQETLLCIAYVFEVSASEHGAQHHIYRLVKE
# B1: macrocyclic two-helix motif peptide 4B (lactam 235–250, 6 crosslinking atoms) (peptide)
# chain: SVDDHFAKALGDTWLQIKAA
# modifications: lactam (positions not given here); not fully specified (bridges); also: lactam crosslink of 6 atoms, residue identities at the bridge ends not given here
# B2: macrocyclic two-helix motif peptide 4A (lactam 235–250, 5 crosslinking atoms) (peptide)
# chain: SVDDHFAKALGDTWLQIKAA
# modifications: lactam (positions not given here); not fully specified (bridges); also: lactam crosslink of 5 atoms, residue identities at the bridge ends not given here
# Target: T1, GST-hTEAD1(209–426)
# Assay: SPR
row,Kd,Binder
1,14 µM,B1
2,4.8 µM,"SVDDHFAKALGDTWLQIKAA (lactam 3-18) [macrocyclic two-helix motif peptide 4C (lactam 235–250, seven-atom crosslink)]"
3,15 µM,B2
4,1.5 µM,"SVEDHFAKALGDTWLQIKAA (lactam (positions not given here); not fully specified (bridges)) [macrocyclic two-helix motif peptide 4D (lactam 235–250, seven-atom crosslink)]"

# Target: T2, mouse TEAD4(210–427), as purified (SPR)
# Assay: SPR
row,Kd,Binder
1,11 µM,B1
2,3.2 µM,"SVDDHFAKALGDTWLQIKAA (lactam 3-18) [macrocyclic two-helix motif peptide 4C (lactam 235–250, seven-atom crosslink)]"
3,11 µM,B2
4,1 µM,"SVEDHFAKALGDTWLQIKAA (lactam (positions not given here); not fully specified (bridges)) [macrocyclic two-helix motif peptide 4D (lactam 235–250, seven-atom crosslink)]"
